Laboratory results as given in the supplement of paper PMC9112550, “Optimization of the antimicrobial peptide Bac7 by deep mutational scanning” (BMC Biology, 2022).

Each sequence was assayed on Escherichia coli TOP10 (assay: shrunken log2 fold change of peptide-encoding DNA abundance (4.5 h post-induction vs induction); higher = less antimicrobial activity (less host growth inhibition)). Conditions: time post-induction: 4.5 h; library: site-saturation at positions 5, 18, 19, 20.
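Further: peptides expressed intracellularly from a pBAD plasmid library in pooled LB shake-flask culture, induced with 0.3% L-arabinose, DNA abundance read by NGS, three biological replicates, DESeq2 with apeglm shrinkage.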

Sequence	shrunken log2 fold change
RRIRARPPRLPRPRPRPAFYPRP	0.117
RRIRCRPPRLPRPRPRPWFSPRP	-0.208
RRIRVRPPRLPRPRPRPNTQPRP	-0.0658
RRIRIRPPRLPRPRPRPTGGPRP	-0.00471
RRIRSRPPRLPRPRPRPNIYPRP	-0.519
RRIRMRPPRLPRPRPRPRYLPRP	-0.0395
RRIRVRPPRLPRPRPRPTLIPRP	0.0816
RRIRQRPPRLPRPRPRPPLEPRP	0.949
RRIRDRPPRLPRPRPRPDGCPRP	0.252
RRIRARPPRLPRPRPRPLDMPRP	-0.00812
RRIRVRPPRLPRPRPRPRTQPRP	0.0785
RRIRHRPPRLPRPRPRPRRSPRP	0.0555
RRIRCRPPRLPRPRPRPVTIPRP	-0.461
RRIRRRPPRLPRPRPRPQDVPRP	-0.108
RRIRKRPPRLPRPRPRPWGCPRP	0.131
RRIRYRPPRLPRPRPRPLLSPRP	-0.186
RRIRQRPPRLPRPRPRPYPIPRP	-0.00931
RRIRPRPPRLPRPRPRPKQPPRP	0.0475
RRIRARPPRLPRPRPRPWSDPRP	0.15
RRIRYRPPRLPRPRPRPFPKPRP	-0.28
RRIRKRPPRLPRPRPRPPDEPRP	1.89
RRIRFRPPRLPRPRPRPQWTPRP	-0.075

Sequence	shrunken log2 fold change
RRIRWRPPRLPRPRPRPYFTPRP	-0.624
RRIRDRPPRLPRPRPRPETKPRP	0.0655
RRIRHRPPRLPRPRPRPHSWPRP	-0.0723
RRIRDRPPRLPRPRPRPYEFPRP	0.047
RRIRARPPRLPRPRPRPCLAPRP	0.328
RRIRPRPPRLPRPRPRPDVMPRP	0.16
RRIRCRPPRLPRPRPRPKHNPRP	-0.325
RRIRYRPPRLPRPRPRPHPEPRP	0.037
RRIRKRPPRLPRPRPRPLGYPRP	0.202
RRIRDRPPRLPRPRPRPWGEPRP	0.0987
RRIRCRPPRLPRPRPRPFIIPRP	-0.577
RRIRDRPPRLPRPRPRPQCGPRP	0.192
RRIRDRPPRLPRPRPRPPQGPRP	0.289
RRIRVRPPRLPRPRPRPNEMPRP	0.0222
RRIRVRPPRLPRPRPRPMFYPRP	-0.725
RRIRYRPPRLPRPRPRPDTTPRP	0.0425
RRIRDRPPRLPRPRPRPRKKPRP	0.0136
RRIRNRPPRLPRPRPRPLQHPRP	0.198
RRIRVRPPRLPRPRPRPMLGPRP	-0.0049
RRIRGRPPRLPRPRPRPFNLPRP	-0.643
RRIRNRPPRLPRPRPRPRSKPRP	0.0945
RRIRERPPRLPRPRPRPHISPRP	-0.3

Sequence	shrunken log2 fold change
RRIRLRPPRLPRPRPRPLECPRP	0.184
RRIRDRPPRLPRPRPRPSMSPRP	-0.33
RRIRTRPPRLPRPRPRPSANPRP	-0.0622
RRIRCRPPRLPRPRPRPDEDPRP	-0.0684
RRIRVRPPRLPRPRPRPQSDPRP	-0.0819
RRIRARPPRLPRPRPRPWIRPRP	-0.132
RRIRWRPPRLPRPRPRPEDQPRP	0.475
RRIRYRPPRLPRPRPRPQMFPRP	-0.0885
RRIRQRPPRLPRPRPRPRQKPRP	0.257
RRIRSRPPRLPRPRPRPNYVPRP	-0.906
RRIRHRPPRLPRPRPRPKRDPRP	0.158
RRIRPRPPRLPRPRPRPVFMPRP	-0.185
RRIRTRPPRLPRPRPRPNNHPRP	-0.345
RRIRYRPPRLPRPRPRPKPCPRP	-0.0304
RRIRCRPPRLPRPRPRPSMVPRP	-0.312
RRIRDRPPRLPRPRPRPNVNPRP	-0.166
RRIRDRPPRLPRPRPRPDAIPRP	0.903
RRIRPRPPRLPRPRPRPKMWPRP	0.299
RRIRLRPPRLPRPRPRPRRTPRP	0.354
RRIRNRPPRLPRPRPRPPDMPRP	0.0955
RRIRNRPPRLPRPRPRPILEPRP	0.109
RRIRKRPPRLPRPRPRPPACPRP	0.197

Sequence	shrunken log2 fold change
RRIRQRPPRLPRPRPRPHHFPRP	-0.0176
RRIRDRPPRLPRPRPRPEQIPRP	-0.0105
RRIRSRPPRLPRPRPRPFLTPRP	-0.437
RRIRERPPRLPRPRPRPVEQPRP	-0.209
RRIRFRPPRLPRPRPRPRRWPRP	0.934
RRIRERPPRLPRPRPRPRAEPRP	-0.116
RRIRYRPPRLPRPRPRPMHHPRP	-0.596
RRIRDRPPRLPRPRPRPHFCPRP	0.23
RRIRIRPPRLPRPRPRPMSGPRP	0.174
RRIRSRPPRLPRPRPRPDTQPRP	-0.00981
RRIRGRPPRLPRPRPRPKQLPRP	-0.00285
RRIRIRPPRLPRPRPRPIGFPRP	0.0766
RRIRIRPPRLPRPRPRPYHHPRP	-0.0849
RRIRQRPPRLPRPRPRPSRVPRP	-0.00679
RRIRSRPPRLPRPRPRPDTSPRP	-0.0998
RRIRDRPPRLPRPRPRPYNVPRP	-0.0265
RRIRERPPRLPRPRPRPTDHPRP	-0.251
RRIRPRPPRLPRPRPRPGGPPRP	0.41
RRIRKRPPRLPRPRPRPAFVPRP	0.423
RRIRERPPRLPRPRPRPISNPRP	-0.25
RRIRARPPRLPRPRPRPRMLPRP	0.395
RRIRTRPPRLPRPRPRPIREPRP	-0.0125

Sequence	shrunken log2 fold change
RRIRRRPPRLPRPRPRPVGTPRP	0.018
RRIRTRPPRLPRPRPRPFRVPRP	-0.108
RRIRNRPPRLPRPRPRPTDMPRP	-0.0588
RRIRNRPPRLPRPRPRPMKPPRP	-0.00018
RRIRGRPPRLPRPRPRPFIGPRP	-0.258
RRIRDRPPRLPRPRPRPQHVPRP	0.0427
RRIRIRPPRLPRPRPRPGQKPRP	-0.0432
RRIRYRPPRLPRPRPRPDRNPRP	-0.018
RRIRSRPPRLPRPRPRPDWIPRP	-0.337
RRIRMRPPRLPRPRPRPAWPPRP	0.896
RRIRQRPPRLPRPRPRPLILPRP	-0.424
RRIRRRPPRLPRPRPRPQDYPRP	-0.268
RRIRCRPPRLPRPRPRPANQPRP	-0.137
RRIRDRPPRLPRPRPRPCYCPRP	-0.148
RRIRKRPPRLPRPRPRPGWRPRP	0.348
RRIRKRPPRLPRPRPRPLTQPRP	0.198
RRIRVRPPRLPRPRPRPCNLPRP	-0.163
RRIRKRPPRLPRPRPRPHCRPRP	-0.022
